B1: 9/10 peptide, aa 209-241 of apoA-I (33-mer) (peptide)
peptide: Ac-PALEDLRQGLLPVLESFKVSFLSALEEYTKKLN-NH2

Tests used:
[1] = biological target: ATP-binding cassette transporter A1 (ABCA1), endogenous in J774 macrophages (Homo sapiens (Human)) (UniProt O95477)
[2] = biological target: ATP-binding cassette transporter A1 (ABCA1), endogenous in J774 macrophages (Homo sapiens (Human), UniProt O95477); assay: cell-based or functional assay

Molecule | concentration giving maximal cholesterol efflux [1] [µg/mL] | potency in mediating ABCA1-dependent cholesterol efflux against the 1/9 chimera [2]
full-length recombinant apoA-I (His-tagged) (from UniProt P02647) (ligand) | 10 | –
B1 | – | 2 fold (against the 1/9 chimera)

Source: patent US20050202532A1, “Helical synthetic peptides that stimulate cellular cholesterol efflux” (The Regents of the University of California, published 2005)
